Drawing on US20170247454A1 (Hoffmann-La Roche, published 2017), this text covers Kd, koff and kon for one molecule.

In assay [1] the target is T1, PD1 aglycosylated at Asn58 (human PD1-ECD) (human, UniProt Q15116 25-170, not glycosylated at Asn58 (position on SEQ ID NO: 70)).
T1 construct: also called aglycosylated PD-1; non-glycosylated recombinant human PD1
Briefly: SPR (Biacore T200, 25 °C), antibody captured by anti-human IgG, PD1-ECD as analyte, 1:1 Langmuir fit; PD1 aglycosylated at Asn58. An excerpt: (§1) A surface plasmon resonance (SPR) based assay has been used to determine the kinetic parameters of the binding between […]. Therefore, an anti-human IgG was immobilized by amine coupling to the surface of a (Biacore) CM5 sensor chip. The samples were then captured and hu PD1-ECD was bound to them. The sensor chip surface was regenerated after each analysis cycle. The equilibrium constant and kinetic rate constants were finally gained by fitting the data to a 1:1 langmuir interaction model.
(§2) The samples were injected for 20 seconds with a concentration of 10 nM and bound to the second flow cell.
(§3) Finally the double referenced data was fitted to a 1:1 langmuir interaction model with the Biacore T200 Evaluation Software.

Assay [2] addresses T2, PD1 glycosylated at Asn58 (human PD1-ECD) (human, UniProt Q15116 25-170, N-glycosylated at Asn58 (position on SEQ ID NO: 70)).
T2 construct: also called glycosylated PD-1; glycosylated recombinant PD1
Briefly: SPR (Biacore T200, 25 °C), antibody captured by anti-human IgG, PD1-ECD as analyte, 1:1 Langmuir fit; PD1 glycosylated at Asn58.
Text: as §1, §2, §3

The target of assay [3] is T1, PD1 aglycosylated at Asn58 (human …). As to the kind of experiment: SPR (Biacore T200, 25 °C), antibody captured by anti-human IgG, PD1-ECD as analyte, 1:1 Langmuir fit.
Text: as §1, §2, §3

The target of assay [4] is T2, PD1 glycosylated at Asn58 (human …). The description is as above.
Text: as §1, §2, §3

T1 sequence (Q15116 25-170 limits assumed): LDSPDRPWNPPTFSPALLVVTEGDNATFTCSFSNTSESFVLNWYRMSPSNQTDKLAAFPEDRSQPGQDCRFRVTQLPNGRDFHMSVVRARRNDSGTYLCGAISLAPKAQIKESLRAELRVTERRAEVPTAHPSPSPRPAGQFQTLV
T2 sequence (Q15116 25-170 limits assumed): as above

B1: PD1-0103-0312 (antibody, V domains shown)
VH: EVQLLESGGGLVQPGGSLRLSCAASGFSFSSYTMSWVRQAPGKGLEWVATISGGGRDIYYPDSVKGRFTISRDNSKNTLYLQMNSLRAEDTAVYYCVLLTGRVYFALDSWGQGTLVTVSS
VL: DIVMTQSPDSLAVSLGERATINCKASESVDTSDNSFIHWYQQKPGQSPKLLIYRSSTLESGVPDRFSGSGSGTDFTLTISSLQAEDVAVYYCQQNYDVPWTFGQGTKVEIK
Consider B1, for which the Kd in assay [1] stood at 80.2 nM; in assay [2], 0.0961 nM. Further, the koff in assay [3] was found to be 0.027 s⁻¹; in assay [4], 7.46e-05 s⁻¹. The kon in assay [3] came to 336000 M⁻¹ s⁻¹; in assay [4], 777000 M⁻¹ s⁻¹.
